# Reference: the DeepSol protein solubility set
# Assay: soluble on expression in E. coli; label from the status in PepcDB or PDB records
row,Sequence,soluble on expression in E. coli
1,MDVSAYPFFRRDMSWLSFNERVLMEAADRTLPVYDRIKFLSIFSSNLEEFYTVRVAYHQAVLQKRRDRSEAEEDSDADAHILQAIRETVIRQDELYYRIFYDQILPTLEEHGIRLRTHAPTHPDHKAYLRRFFHEEIFPLLYPMLLLPSKVRTFIRSGRVYLAVRLKEKETDEAYSYALLNVPTDGLPRFVELPRLQTDTFYYYSFLEDIIKEHLDVVFPGYEVMDSYSIKVSRDADLLLDAQRPEDLPGEIRKKVKTRKLGAPTRFMYDGRMPDEVLRYICSSCDIDPEEAIRSGNYVNLQDLAMLPNPFAPRLETLTPEPLLSKHLEQAPSLMEGIRRKDYLIHVPYYTYDYVVRLLMEAAISPDVSEIRLTQYRVAENSSIISALEAAAQSGKKVSVFVELKARFDEENNLRLSERMRRSGIRIVYSMPGLKVHAKTALILYHTPAGERPQGIALLSTGNFNETTARIYSDTTLMTANTDIVHDVYRLFRILDGDPEPARFSRLLVARYNMGEAITNLIEREIENVKRGKRGYMLLKMNGLQDKNVITQLYRASEAGVEIDLIVRGICCLVPDMPQSRNIRVTRLVDMYLEHSRIWCFHNGGKEEVFISSADWMKRNLYNRIETACPVLDPALRREIIDILEIQLRDNIKACRIDSSLNNIYKHNSDEKPVRAQAAIYRYLKGKEEATPAAK,not soluble
2,MGSDKIHHHHHHMSRAERLIELMITINAKRSFTAGELAEEFSVSKRTILRDLQVLESIGFPLYSKVGAAGGYHVLKERILPPIAFSESEVKSIFFAYQSLEYYNDLPFEQETISVLKKFLNCIPNDIQYNIENIRRKFVFWTPDRHCSTPLLKELFNIVMNEFTIKIEYSSKQKNSVRTIVPIGLYAMNGLWYCPAYCIKSESIKEFRVDRIVKILSIENLSSKKYKVLSSIHDYLKNMEVGTDYHIKINLTDEGVKRCETEFLLARGLKILSKGGYIDMYIPKSTLNWVAEYFLTFGKNATIIEPIELKHLIKSKVLELYNHHCI,not soluble
3,MRKYTFKTQRPKIVVIGGGTGLPVVLNGLRKQAVDITAVVTVADDGGSSGIIRNYVNVVPPGDIRNVMVALSSWPDLYKDIFQYRFQGDDQFFAGHAIGNLIIAALTEMKSGVFDAVQELSNMMQVDGHVYPAANEALTLHGKFSDGTELVGEAEITAAHKSLERVWVTDKNGKEPQAVQPVIDAIMAADQIVLGPGSLFTSILPNLTIGNIGRAVCESDAEVVYICNIMTQKGETDNFSDADHVRVLNRHLGQNFINTVLVNTEKVPEDYMDFHKFNEVSKQVSHDFRGLREQNCRVISSNFLKLRDNGAFHDGDQVVAELMNLVGHSDVFRLEHHHHHH,soluble
4,MEALGADVTQGLEKGSLITCADNTGARELKVISVHGYSGTKNRHPKAGLGDKITVSVTKGTPEMRRQVLEAVVVRQRKPIRRPDGTRVKFEDNAAVIVDENEDPRGTELKGPIAREVAQRFGSVASAATMIV,soluble
5,MITLTLFGQETSSSALIFAYCNAATGSNTMSTDCRRRLNKDLYLLIPEHPMNPKQFERWKSQLSQLSPQQLRALQGEIDRSLHQNESALLTEEERDAIAHLFS,not soluble
6,GMRSNRVTQHPPLQLSLPVHLPDDETFTSYYPAAGNDELIGALKSAASGDGVQAIYLWGPVKSGRTHLIHAACARANELERRSFYIPLGIHASISTALLEGLEQFDLICIDDVDAVAGHPLWEEAIFDLYNRVAEQKRGSLIVSASASPMEAGFVLPDLVSRMHWGLTYQLQPMMDDEKLAALQRRAAMRGLQLPEDVGRFLLNRMARDLRTLFDVLDRLDKASMVHQRKLTIPFVKEMLRL,soluble
7,MESLTLQPIARVDGTINLPGSKSVSNRALLLAALAHGKTVLTNLLDSDDVRHMLNALTALGVSYTLSADRTRCEIIGNGGPLHAEGALELFLGNAGIAMRSLAAALCLGSNDIVLTGEPRMKERPIGHLVDALRLGGAKITYLEQENYPPLRLQGGFTGGNVDVDGSVSSQFLTALLMTAPLAPEDTVIRIKGDLVSKPYIDITLNLMKTFGVEIENQHYQQFVVKGGQSYQSPGTYLVEGDASSASYFLAAAAIKGGTVKVTGIGRNSMQGDIRFADVLEKMGATICWGDDYISCTRGELNAIDMDMNHIPDAAMTIATAALFAKGTTTLRNIYNWRVKETDRLFAMATELRKVGAEVEEGHDYIRITPPEKLNFAEIATYNDHRMAMCFSLVALSDTPVTILDPKCTAKTFPDYFEQLARISQAA,soluble
8,MGSDKIHHHHHHMVAQIQELEAQHWVKTRSSLDPNESTFLIWKGKIYAFIPGEKRQLLFKILGLSVSRCIPTAEGSWDFTSRELTYYLNPKTDEILRKWENPWTSETVPVIHVANNPVQGKFEGNFPAQVDGDSTTFVFDIFPYYPNPLADDPKFAEYSPNPIYQAAELFKLTVPTADLFNSALPSVSELKLSWDRIGQWLPWMKMGDRPGQLIYSAVGSKVNGLTELPPLLQDEINNRIPLYKQAPKALIDGEDMTSWLYFQKHFPAYLAGEIFPLPQAEEL,not soluble
9,SAFVAALSAAGLPTDAFVFEGFLPTRGKRRLEKLANLKGEQRVVIFYEAPGRLQAALADMREVLGDRHVVVARELTKIHEEFVRGRVSFVAEHFAAVDVKGEVVILVAPAPAP,soluble
10,MLRSTSDRFRWSSLSLAIACTLPLATQAADTTTTQTSSKKHSTDTMVVTATGNERSSFEAPMMVTVIEGNAPTSQTAATAADMLRQVPGLTVTGSGRTNGQDVVMRGYGKQGVLTLVDGVRQGTDTGHLNSTFLDPALVKRIEIVRGPAALLYGSGALGGVIAYETVDAADMLQPGQNSGYRVYSSAATGDHSFGLGASAFGRTDDLDGILSFGTRDIGNIRQSNGFNAPNDETISNVLAKGTWQIDSIQSLSANLRYYNNSAIEPKNPQTSAPSSTNVMTNRSTIQRDAQLRYNIKPLDQEWLNATAQVYYSEVEINARPQGSAEEGREQTTEGVKLENRTRLFIESPASHLLTYGTETYKQEQTPGGATESFPQAKIRFSSGWLQDEITLRDLPVSILAGTRYDNYSGSSDGYADVDADKWSSRGAISITPTDWLMLFGSYAQAFRAPTMGEMYNDSKHFAIPIRPGLTLTNYWVPNPNLKPETNETQEYGFGLRFSDLLMAEDDLQFKVSYFDTKAKDYISTRVDMQAMTTTSVNIDQAKIWGWDASMSYKTALFNWDLAYNRTRGKNQNTDEWLDTINPDTVTSIVDVPVANSGFSVGWIGTFANRSSRVSSSTPQAGYGVNDFYVSYKGQEAFKGMTTTMLLGNVFEKEYYTPQGIPQDGRNVKFFVSYQW,not soluble
11,RTRKGIELIPLDQVIYFIADHKYVTLRHEGGEVLLDEPLKALEDEFGDRFVRIHRNALVARKRIESMKRTPVGHFELFLRGLNGDALIVSRRHVAGVRKMMQQL,not soluble
12,MNKHERLDEIAKLVNKKGTIRTNEIVEGLNVSDMTVRRDLIELENKGILTKIHGGARSNSTFQYKEISHKEKHTRQIAEKRYIARKAASLIEDGDTLFFGPGTTVELLAEEVNHHTLTIITNCLPVYKILLEKQTAHFRVYLIGGEMRHITEAFVGEMANAMLEKLRFSKMFFSSNAVNKGAVMTSTLDEAYTQQLALSNSIEKYLLIDHTKVGKEDFTSFCQLNELTAVVMDYEDEEKVETIKTYIEVVDLEHHHHHH,soluble
13,MNTPSRTHLVIIPSYNPGPKVYETVQAARRYWNPVWVVVDGSTDGTWEGLLKLSAEDSGLVVLGMPANRGKGAAVLRGLLTSRRKGFTHALVMDSDGQHPADRIPEFMARSQEEPDAMILGVPVFDDSAPSLRVKGRRISNWWANLETLWCGIGDSLFGFGVYPIQALCVIMQDHQWMRRFDFDPEAAVRLCWAGIRPVNLPVPVYYPKPEEGGTSHFHYWRDNALLTWMHVRLMFGFLARLPILLARIVRRPEILEHHHHHH,not soluble
14,MAFAIASALTSTLTLSTSRVQNPTQRRPHVASTSSTGGRLMRERLVVVRAGKEVSSVCEPLPPDRPLWFPGSSPPEWLDGSLPGDFGFDPLGLGSDPDTLKWFAQAELIHSRWAMLAVTGIIIPECLERLGFIENFSWYDAGSREYFADSTTLFVAQMVLMGWAEGRRWADLIKPGSVDIEPKYPHKVNPKPDVGYPGGLWFDFMMWGRGSPEPVMVLRTKEIKNGRLAMLAFLGFCFQATYTSQDPIENLMAHLADPGHCNVFSAFTSH,soluble
15,DLPIADVQGSLDTRHIAIDRVGIKAIRHPVVVADKGGGSQHTVAQFNMYVNLPHNFKGTHMSRFVEILNSHEREISVESFEEILRSMVSRLESDSGHIEMAFPYFINKSAPVSGVKSLLDYEVTFIGEIKHGNQYSFTMKVIVPVTSLCPCSKKISDYGAHNQRSHVTISVRTNSFIWIEDIIRIAEEQASCELYGLLKRPDEKYVTERAYNNPKFVEDIVRDVAEVLNHDDRIDAYIVESENFESIHNHSAYA,not soluble
16,MAHHHHHHMASLKERDTVAPAEIVAGVTASGPAGISAEELHKVLNSSEHASVVVVDVRNADEYASFHIPGSINKPFQELNFAQLADEVAAHTNHAAHMLVFVSAQSPDVDDLAAREYINEYEKSHAATPTKDSVRVLLGGLYTWSQIYSA,soluble
17,RLTRKEEWLREVLSSIREAIIVTNASGEIVLANPAASRLFMIEAARKRSIPVTNIEDAAMRELFERVQKRQSGIYNEELTAMTSKGKRTLKVTAVPVMRRGALFDGTVLVINDVT,not soluble
18,MPKTQSAAGYKAGVKDYKLTYYTPDYTPKDTDLLAAFRFSPQPGVPADEAGAAIAAESSTGTWTTVWTDLLTDMDRYKGKCYHIEPVQGEENSYFAFIAYPLDLFEEGSVTNILTSIVGNVFGFKAIRSLRLEDIRFPVALVKTFQGPPHGIQVERDLLNKYGRPMLGCTIKPKLGLSAKNYGRAVYECLRGGLDFTKDDENINSQPFQRWRDRFLFVADAIHKSQAETGEIKGHYLNVTAPTCEEMMKRAEFAKELGMPIIMHDFLTAGFTANTTLAKWCRDNGVLLHIHRAMHAVIDRQRNHGIHFRVLAKCLRLSGGDHLHSGTVVGKLEGDKASTLGFVDLMREDHIEADRSRGVFFTQDWASMPGVLPVASGGIHVWHMPALVEIFGDDSVLQFGGGTLGHPWGNAPGATANRVALEACVQARNEGRDLYREGGDILREAGKWSPELAAALDLWKEIKFEFETMDKL,soluble
19,RQNLSSDIDILQSDTMPANAELAGLLQVAVGDTLFRIKVLSKVENRVVDYATMFFPAARLPGLPDAYLRHRSVTRALDDCGVADYTRRFTRVTARLPDAETVDYLGIPKNRPVLHVKSLNVDGEGRPVQYGVTCFNGDLVQLVMEQE,not soluble
20,MLRLLLLCWLCGVSFIGGAQELRVKDTASLTQALVQAQDGDTLVLDTAVYEGNFSVTRSIHIKGEAGATLDAQRQGSALTITAPKVIVEGLNIRHWGRDLYYHDAGILLLPGADEVLIKGNRFVGDGFGIYGEQLASPRIIENSISGNGAIYVLDRGDGIFLKHVTAPDVQQNHIIFVRDGVYLESVTDSKIHHNQFAKLQYGIHYMYTRGDEASQNQATSVDGGYALMNSQQIYLHHNRVSQARDFGILLNITNDSHVQANIATEVQHPQGSVELGNEGKGIFIYAAQNNRIEDNEFSQSDTGISMAMGGEANRLWHNRILGNQTQVKYVGEAQLEWSYQGQGNYWSEYRGWDTNGDGVGDIAHRPNDSLDKLFWLYPEAKLLMESPVVLLLRWVERQFQPTSISGVSDSFPLMRLITEGDGIAAALEHHHHHH,soluble
21,MKIGVFDSGVGGFSVLKSLLKARLFDEIIYYGDSARVPYGTKDPTTIKQFGLEALDFFKPHEIELLIVACNTASALALEEMQKYSKIPIVGVIEPSILAIKRQVEDKNAPILVLGTKATIQSNAYDNALKQQGYLNISHLATSLFVPLIEESILEGELLETCMHYYFTPLEILPEVIILGCTHFPLIAQKIEGYFMGHFALPTPPLLIHSGDAIVEYLQQKYALKNNACTFPKVEFHASGDVIWLERQAKEWLKL,soluble
